The results in this text go back to patent US20030073236A1, “p193 proteins and nucleic acids, and uses thereof” (priority 1999, published 2003).

The target of one assay is T1, SV40 T-Ag (Simian virus 40, UniProt P03070).
T1 construct: construct designated CMV-T-Ag; expressed in transfected cells; host or cells: NIH-3T3
As to the kind of experiment: p193/T-Ag binding by immune precipitation. The conditions noted are these: radiolabeled in vitro translated p193 mixed with recombinant T-Ag. How it is done:
A T-Ag cDNA was subcloned into pcDNA3.1 expression vector (which lacks the epitope tag; construct designated CMV-T-Ag). For IP/Western analyses, NIH-3T3 cells (ATCC, Rockville Md.) were co-transfected with […] and CMV-p193myc using the calcium phosphate approach (Sambrook, J., Fritsch, E. F., and Maniatis, T. (1989) Molecular cloning, Cold Spring Harbor Laboratory Press, Cold Spring Harbor, N.Y.). Protein (1 mg) prepared from the transfected cells was reacted with an anti-T-Ag (PAb419), an anti-myc (9E10, Santa Cruz Biotech.), or an IgG subtype-matched non-specific antibody (anti-GST, Pharmacia), and the resulting immune complexes were subjected to Western blot analysis. 100 μg of total protein from non-transfected and transfected cells were included as controls. The blots were probed with an anti-myc (9E10) or anti-T-Ag (PAb416) antibody, and signal was developed using the ECL method. […] Immune complex was then visualized via autoradiography (p193) or Western blotting (T-Ag) as described above.

Assay [1] deals with ES-derived cardiomyocytes. As to the kind of experiment: Isoproterenol effect on growth of ES-derived cardiomyocytes co-expressing p193dn and p53dn. Type of assay: cell-based. The conditions noted are these: cells with MHC-p193dn and MHC-p53dn, isoproterenol 1 μM mg/ml for 58 days, vs. absence. The source says:
It follows then that if the p193 and p53 pathways are blocked, hypertrophic stimuli might result in direct cell cycle activity. To test this, undifferentiated ES cells were transfected with the MHC-neor/pGK-hygror transgene in combination with both the MHC-p193dn and MHC-p53dn transgenes. Transfected cells were enriched by virtue of their resistance to hygromycin, and then induced to differentiate. The ES-derived cardiomyocytes were then enriched by virtue of their resistance to G418. Cardiomyocyte growth was then compared in these cultures in the presence vs. absence of exogenous isoproterenol (1 μM mg/ml) for 58 days.

T1 sequence (Q8VE73 whole entry): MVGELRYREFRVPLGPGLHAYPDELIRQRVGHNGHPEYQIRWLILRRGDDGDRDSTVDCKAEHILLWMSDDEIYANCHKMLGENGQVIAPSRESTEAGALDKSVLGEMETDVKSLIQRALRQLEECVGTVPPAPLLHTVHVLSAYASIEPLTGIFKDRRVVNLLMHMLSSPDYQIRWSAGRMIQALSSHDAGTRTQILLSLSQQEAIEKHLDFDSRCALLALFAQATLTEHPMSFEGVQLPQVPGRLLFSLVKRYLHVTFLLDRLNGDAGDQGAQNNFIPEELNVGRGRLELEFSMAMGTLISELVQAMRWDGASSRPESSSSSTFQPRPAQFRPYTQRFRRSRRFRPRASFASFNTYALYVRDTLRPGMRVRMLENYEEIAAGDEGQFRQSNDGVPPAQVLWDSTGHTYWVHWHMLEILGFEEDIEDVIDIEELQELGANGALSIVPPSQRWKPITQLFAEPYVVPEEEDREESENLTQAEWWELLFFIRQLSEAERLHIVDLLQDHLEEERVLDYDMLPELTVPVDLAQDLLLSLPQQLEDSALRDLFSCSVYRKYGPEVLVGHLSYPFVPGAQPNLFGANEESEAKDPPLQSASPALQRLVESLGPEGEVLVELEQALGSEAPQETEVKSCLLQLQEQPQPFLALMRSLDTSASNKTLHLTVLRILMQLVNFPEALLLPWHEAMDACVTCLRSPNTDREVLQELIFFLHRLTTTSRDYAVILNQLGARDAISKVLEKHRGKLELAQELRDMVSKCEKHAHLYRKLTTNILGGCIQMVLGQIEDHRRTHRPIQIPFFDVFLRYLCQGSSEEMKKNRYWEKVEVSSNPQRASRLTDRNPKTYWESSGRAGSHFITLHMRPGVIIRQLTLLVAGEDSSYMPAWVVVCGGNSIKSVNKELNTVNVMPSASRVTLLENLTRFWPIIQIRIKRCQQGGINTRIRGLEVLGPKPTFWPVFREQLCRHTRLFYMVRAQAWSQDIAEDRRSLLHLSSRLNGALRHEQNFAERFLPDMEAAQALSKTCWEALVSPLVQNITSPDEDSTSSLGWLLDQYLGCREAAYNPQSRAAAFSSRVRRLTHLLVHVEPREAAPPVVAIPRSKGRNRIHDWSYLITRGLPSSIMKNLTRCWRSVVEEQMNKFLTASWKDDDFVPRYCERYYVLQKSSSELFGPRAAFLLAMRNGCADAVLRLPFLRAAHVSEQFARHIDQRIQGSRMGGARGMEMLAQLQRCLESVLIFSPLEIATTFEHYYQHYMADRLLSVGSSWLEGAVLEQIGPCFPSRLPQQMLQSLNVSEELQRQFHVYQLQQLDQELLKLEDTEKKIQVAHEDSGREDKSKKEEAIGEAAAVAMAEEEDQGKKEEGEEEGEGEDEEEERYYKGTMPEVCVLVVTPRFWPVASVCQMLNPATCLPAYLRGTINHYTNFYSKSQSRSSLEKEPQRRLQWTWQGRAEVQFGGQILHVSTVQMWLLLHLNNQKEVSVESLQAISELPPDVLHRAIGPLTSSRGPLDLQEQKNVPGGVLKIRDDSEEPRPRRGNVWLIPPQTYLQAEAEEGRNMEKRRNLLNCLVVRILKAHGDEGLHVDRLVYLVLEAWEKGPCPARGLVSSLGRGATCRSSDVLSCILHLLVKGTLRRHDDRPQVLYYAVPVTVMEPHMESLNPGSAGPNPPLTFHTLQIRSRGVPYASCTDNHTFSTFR
T1 sequence (P03070 whole entry): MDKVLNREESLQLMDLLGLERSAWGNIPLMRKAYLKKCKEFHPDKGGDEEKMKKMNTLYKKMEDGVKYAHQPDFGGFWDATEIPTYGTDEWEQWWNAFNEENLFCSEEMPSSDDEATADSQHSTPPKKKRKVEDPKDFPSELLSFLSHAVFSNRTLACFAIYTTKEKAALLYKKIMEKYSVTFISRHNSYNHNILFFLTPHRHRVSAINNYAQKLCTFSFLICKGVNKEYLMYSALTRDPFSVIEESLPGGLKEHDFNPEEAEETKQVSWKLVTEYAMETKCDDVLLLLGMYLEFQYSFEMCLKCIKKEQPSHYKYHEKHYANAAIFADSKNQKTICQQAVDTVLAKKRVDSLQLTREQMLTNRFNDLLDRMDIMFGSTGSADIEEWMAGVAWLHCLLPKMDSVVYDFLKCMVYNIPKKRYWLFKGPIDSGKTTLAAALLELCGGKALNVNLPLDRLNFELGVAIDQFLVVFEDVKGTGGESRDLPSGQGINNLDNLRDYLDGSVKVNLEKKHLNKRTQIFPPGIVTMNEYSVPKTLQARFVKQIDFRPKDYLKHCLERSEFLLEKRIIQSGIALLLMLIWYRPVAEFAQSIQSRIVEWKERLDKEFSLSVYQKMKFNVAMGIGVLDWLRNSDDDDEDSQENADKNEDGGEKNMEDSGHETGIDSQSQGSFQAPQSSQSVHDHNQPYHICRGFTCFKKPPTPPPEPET

Regarding “p193: apoptosis associated, T-Ag binding protein of 1689 amino acid residues (mouse, SEQ. I.D. NO. 2); here in vitro translated”, the “binding of in vitro translated protein to recombinant T-Ag (IP)” value in the assay with SV40 T-Ag was “present in immune complex generated with anti-T-Ag antibody”.

As for `CC(C)NCC(O)c1ccc(O)c(O)c1` (centres unmarked) [isoproterenol], in assay [1], the cardiomyocyte colony size entry is on record as “Markedly enhanced cardiomyocyte colony size”.
